Experimental data from US20100298415.

How the values were obtained:
Assay in all cases: competition
Conditions in all cases: PS three linkages at 5' and 3' ends of both strands; 5' C6 amino linker conjugated to Co(III) Schiff base; not inhibited at 1 uM; EMSA
[1] = molecular target: T1, MitF (UniProt O75030)
T1 sequence: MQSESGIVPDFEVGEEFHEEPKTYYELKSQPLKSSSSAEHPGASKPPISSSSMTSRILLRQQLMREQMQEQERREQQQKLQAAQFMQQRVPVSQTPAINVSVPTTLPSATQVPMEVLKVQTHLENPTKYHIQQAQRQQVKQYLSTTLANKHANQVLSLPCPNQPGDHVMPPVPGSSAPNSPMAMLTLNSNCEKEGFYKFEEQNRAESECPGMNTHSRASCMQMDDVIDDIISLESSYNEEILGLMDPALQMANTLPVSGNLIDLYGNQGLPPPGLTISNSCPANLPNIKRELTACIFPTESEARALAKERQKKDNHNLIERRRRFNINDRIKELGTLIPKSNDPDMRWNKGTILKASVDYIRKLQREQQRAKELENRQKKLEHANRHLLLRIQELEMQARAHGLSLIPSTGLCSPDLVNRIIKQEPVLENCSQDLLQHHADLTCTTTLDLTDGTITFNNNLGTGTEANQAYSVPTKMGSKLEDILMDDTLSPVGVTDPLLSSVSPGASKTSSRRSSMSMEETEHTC

[2] = molecular target: T2, p105 (NF-kB) (UniProt P19838)
T2 sequence: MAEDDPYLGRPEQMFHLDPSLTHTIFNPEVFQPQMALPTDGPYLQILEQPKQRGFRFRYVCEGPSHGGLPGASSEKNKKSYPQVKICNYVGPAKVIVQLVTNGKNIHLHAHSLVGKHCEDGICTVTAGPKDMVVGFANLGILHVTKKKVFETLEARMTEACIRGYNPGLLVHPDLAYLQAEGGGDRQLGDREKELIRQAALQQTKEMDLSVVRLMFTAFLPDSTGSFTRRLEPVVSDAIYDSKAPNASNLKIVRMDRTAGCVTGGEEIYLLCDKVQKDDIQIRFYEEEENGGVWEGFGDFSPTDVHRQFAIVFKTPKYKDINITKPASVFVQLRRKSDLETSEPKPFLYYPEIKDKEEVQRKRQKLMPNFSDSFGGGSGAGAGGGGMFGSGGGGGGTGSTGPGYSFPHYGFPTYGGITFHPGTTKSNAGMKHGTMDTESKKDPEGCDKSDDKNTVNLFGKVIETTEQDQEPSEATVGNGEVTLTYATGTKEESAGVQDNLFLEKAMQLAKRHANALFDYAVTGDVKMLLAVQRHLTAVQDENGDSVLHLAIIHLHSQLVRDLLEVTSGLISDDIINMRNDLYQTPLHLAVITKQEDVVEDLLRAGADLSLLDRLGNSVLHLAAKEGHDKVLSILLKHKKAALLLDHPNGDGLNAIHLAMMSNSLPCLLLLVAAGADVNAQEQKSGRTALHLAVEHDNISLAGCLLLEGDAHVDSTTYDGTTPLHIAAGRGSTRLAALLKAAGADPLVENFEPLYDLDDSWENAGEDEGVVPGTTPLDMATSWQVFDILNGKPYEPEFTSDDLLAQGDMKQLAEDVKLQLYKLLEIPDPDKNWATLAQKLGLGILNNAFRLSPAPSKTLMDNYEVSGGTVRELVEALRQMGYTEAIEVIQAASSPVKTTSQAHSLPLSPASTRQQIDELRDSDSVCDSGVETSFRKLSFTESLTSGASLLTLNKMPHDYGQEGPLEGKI

[3] = molecular target: Lef-1 (UniProt Q9UJU2)
Lef-1, sequence (Q9UJU2 whole entry): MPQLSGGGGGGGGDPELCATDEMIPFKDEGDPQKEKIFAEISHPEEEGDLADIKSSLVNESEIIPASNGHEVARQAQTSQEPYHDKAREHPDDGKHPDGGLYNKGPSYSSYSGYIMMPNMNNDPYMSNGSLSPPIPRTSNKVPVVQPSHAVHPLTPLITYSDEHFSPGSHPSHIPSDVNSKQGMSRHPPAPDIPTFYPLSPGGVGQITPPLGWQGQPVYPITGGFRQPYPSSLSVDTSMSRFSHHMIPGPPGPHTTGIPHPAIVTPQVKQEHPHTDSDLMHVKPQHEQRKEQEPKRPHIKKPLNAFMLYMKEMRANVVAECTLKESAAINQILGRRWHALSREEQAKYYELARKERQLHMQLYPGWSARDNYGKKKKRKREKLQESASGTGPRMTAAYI

Measured: activity

TACGACAGGTGTTGGGA (double strand) [Co(III)-Ebox]
> 1 µM: [1] | [2] | [3]
